# Assay results from publication doi:10.1101/2024.03.08.584019.
# Target: GNNV-P R276A (Dragon grouper (Epinephelus lanceolatus) nervous necrosis virus)
# Assay: AUC
substance,measurement,value
GNNV-P R276A (domain or fragment),stoichiometry N,3
